Laboratory results taken from publication PMC5063001 (Nucleic Acids Research, 2016).

Legend:
[1] = molecular target: the molecule itself; assay: crystal structure
[2] = molecular target: T1, FLI1 DBD (259-399) (UniProt Q01543 259-399); assay: fluorescence anisotropy
T1 sequence: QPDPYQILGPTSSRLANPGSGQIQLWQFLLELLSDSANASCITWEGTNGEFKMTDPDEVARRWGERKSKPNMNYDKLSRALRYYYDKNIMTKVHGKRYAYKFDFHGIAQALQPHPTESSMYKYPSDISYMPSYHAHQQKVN

[3] = molecular target: T2, FLI1 DBD (276-375) (UniProt Q01543 276-375); assay: X-ray crystallography
T2 sequence: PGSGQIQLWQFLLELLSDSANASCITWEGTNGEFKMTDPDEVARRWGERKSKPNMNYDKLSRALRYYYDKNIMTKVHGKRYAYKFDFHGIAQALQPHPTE

[4] = molecular target: T3, 15N-labeled FLI1 DBD (NMR) (UniProt Q01543 259-399); assay: NMR
T3 sequence: T1 sequence

B1: DNA binding domain of FLI1 (residues 276-375) (domain or fragment)
chain: T2 sequence
binding result [1]: binds

B2: AA(GGAA)6 (dsDNA)
DNA 1: AAGGAAGGAAGGAAGGAAGGAAGGAA
DNA 2: TTCCTTCCTTCCTTCCTTCCTTCCTT
binding result [2]: binds

B3: 11-mer GACCGGAAGTG (dsDNA)
DNA 1: GACCGGAAGTG
DNA 2: CACTTCCGGTC
binding result [3]: binds

B4: 12-mer TTGAAGGAAGAG (dsDNA)
DNA 1: TTGAAGGAAGAG
DNA 2: CTCTTCCTTCAA
binding result [4]: binds
